Publication PMC10593839, “The liver microenvironment orchestrates FGL1-mediated immune escape and progression of metastatic colorectal cancer” (Nature Communications, 2023)

Biological target: T1, recombinant hLAG-3 (lymphocyte activating 3) (human, UniProt P18627 23-450)
T1 construct: Bought recombinant protein; source: bought: ABclonal Technology
T1 sequence (looked up): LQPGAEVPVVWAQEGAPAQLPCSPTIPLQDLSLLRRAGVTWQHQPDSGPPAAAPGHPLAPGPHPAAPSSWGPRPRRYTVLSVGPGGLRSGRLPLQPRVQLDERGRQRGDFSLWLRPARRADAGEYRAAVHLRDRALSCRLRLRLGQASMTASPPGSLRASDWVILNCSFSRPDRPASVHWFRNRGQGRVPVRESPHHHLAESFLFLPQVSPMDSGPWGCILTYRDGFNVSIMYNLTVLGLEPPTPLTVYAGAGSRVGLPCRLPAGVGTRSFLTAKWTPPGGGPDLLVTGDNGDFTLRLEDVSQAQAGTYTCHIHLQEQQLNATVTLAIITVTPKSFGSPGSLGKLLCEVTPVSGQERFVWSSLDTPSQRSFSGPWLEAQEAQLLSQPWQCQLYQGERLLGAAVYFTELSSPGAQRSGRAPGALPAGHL
Assay: ELISA; recombinant hLAG-3 (1 μg/mL) coated on ELISA microwells; different amounts of recombinant hFGL1 incubated for 1 h; detected with HRP-conjugated anti-hFGL1 antibody, OD 450 nm
Details: both partners purified

binding result: binds
B1: recombinant hFGL1 (fibrinogen-like protein 1) (ligand, human, UniProt Q08830 23-312, looked up)
chain: LEDCAQEQMRLRAQVRLLETRVKQQQVKIKQLLQENEVQFLDKGDENTVIDLGSKRQYADCSEIFNDGYKLSGFYKIKPLQSPAEFSVYCDMSDGGGWTVIQRRSDGSENFNRGWKDYENGFGNFVQKHGEYWLGNKNLHFLTTQEDYTLKIDLADFEKNSRYAQYKNFKVGDEKNFYELNIGEYSGTAGDSLAGNFHPEVQWWASHQRMKFSTWDRDHDNYEGNCAEEDQSGWWFNRCHSANLNGVYYSGPYTAKTDNGIVWYTWHGWWYSLKSVVMKIRPNDFIPNVI
notes: fibrinogen-like protein 1 (FGL1), human, recombinant; Bought recombinant protein; also called HFREP1; source: bought: ABclonal Technology
